One data set has as its target Tt-S15 (Thermus thermophilus, UniProt Q5SJ76). Description: filter binding; 50 mM Tris/acetate pH 7.5, 20 mM Mg-acetate, 270 mM KCl, 5 mM DTT, 0.02% BSA, RNA <1 nM, 30 min at 25 C (thermophile RNAs also at 55 C). The settings on record: protein: recombinant, label: 5'-32P.
In data set [1] the target is T1, Gk-S15 (UniProt Q5L0I3 1-89). The data set is described as above. The settings on record: protein: recombinant, label: 5'-32P.
In data set [2] the target is T1, Gk-S15. Description: filter binding; max fraction bound <20%; 50 mM Tris/acetate pH 7.5, 20 mM Mg-acetate, 270 mM KCl, 5 mM DTT, 0.02% BSA, RNA <1 nM, 30 min at 25 C (thermophile RNAs also at 55 C). The note with it: protein: recombinant; label: 5'-32P.
Data set [3] deals with T2, Ec-S15 (Escherichia coli, UniProt P0ADZ4 1-89). Description: filter binding; 50 mM Tris/acetate pH 7.5, 20 mM Mg-acetate, 270 mM KCl, 5 mM DTT, 0.02% BSA, RNA <1 nM, 30 min at 25 C (thermophile RNAs also at 55 C).
The target of the next data set is Rr-S15 (UniProt A0ABD5LGG5 1-89). Described as above. The note with it: protein: recombinant; label: 5'-32P.
Chain of Rr-S15 (A0ABD5LGG5 entry or part of it): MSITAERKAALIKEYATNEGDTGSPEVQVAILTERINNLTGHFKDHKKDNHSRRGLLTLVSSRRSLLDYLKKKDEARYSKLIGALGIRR
The target of data set [4] is T2, Ec-S15. Description: filter binding; 5'-32P and 3'-pCp label; 50 mM Tris/acetate pH 7.5, 20 mM Mg-acetate, 270 mM KCl, 5 mM DTT, 0.02% BSA, RNA <1 nM, 30 min at 25 C (thermophile RNAs also at 55 C).

Chain of Tt-S15 (Q5SJ76 2-89): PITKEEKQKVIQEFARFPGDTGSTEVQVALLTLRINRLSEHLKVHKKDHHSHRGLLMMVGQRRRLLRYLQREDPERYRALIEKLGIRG

B1: Rr-mRNA M1 (structured_RNA)
RNA: GGAUAGGCAGCGCCAGCUUGGGCUUUGCCUAUGCUGCUGAAUGGCCAGAGAAAGACGACAUCCCGGCUCUAGGCGUCCCCGUUUUUCCUUAAAACAAGAAAGGAUCGUACGAUGUCGAUUACUGCAGAGCGCAAAGCC
Broadly, the Kd is the free concentration of one partner at which half of the binding sites on the other are occupied at equilibrium, for simple one-to-one binding. Turning to B1, the Kd in the data set with Tt-S15 is 8.8 ± 1.8 nM; in the data set with Gk-S15 [1], 11.8 ± 6.9 nM.

B2: Tt-mRNA WT (structured_RNA)
RNA: GGCUUGGCGGGAGACCGCCUCGAGGAGGAAGGGGCUCAAAGCGCCUUCCCGCCUGACGGAGGGAAAACAUGCCCAUCACGAA
Turning to B2, the Kd worked out at 2.11 ± 0.25 nM with Tt-S15 (three-way junction) and 0.35 ± 0.23 nM in the data set with Gk-S15 [1] (three-way junction).

B3: Tt-mRNA M1 (structured_RNA)
RNA: GGCUUGGCGGGAGACCGCCAAAUGGAGGAAGGGGCUCAAAGCGCCUUCCCGCCUGACGGAGGGAAAACAUGCCCAUCACGAA
Take B3: in the data set with Gk-S15 [2], the Kd was determined as 76.3 ± 5.7 nM.

B4: Gk-mRNA M2 (structured_RNA)
RNA: GGUCAAUGUAUGCGAACCAUUCUCCGGCUAGGCGAGUCACCGACGCCCGCUCGGCAAUCGGGGAUCUAGGACUAGGGAGGUGAACAAGGAUGGCAUUGAA
For B4, the binding result with Tt-S15, with Ec-S15 [3] and in the data set with Rr-S15 was “no binding” each time.

B5: Ec-mRNA WT (structured_RNA)
RNA: ACUGGGAUCGCUGAAUUAGAGAUCGGCGUCCUUUCAUUCUAUAUACUUUGGAGUUUUAAAAUGUCUCUAAGUACUGAAGCAACAGCU
On to B5, for which the binding result with Ec-S15 [4] is reported as “no binding”.

These data come from PMC4684408, “Co-evolution of Bacterial Ribosomal Protein S15 with Diverse mRNA Regulatory Structures”.
